Among the data in patent publication US20080319173A1 are relative A epitope density (ratio of blood group A to mIgG reactivity), fold over PSGL-1/mIgG2b made in 293T cells with FUT2 and the A gene values, retold here.

The assay concerns the target PSGL-1/mIgG2b produced in CHO cells with FUT2 (Se gene) and α1,3 GalNAcT (A gene) (mouse). Kind of assay: western blot, chemiluminescence volumes (Fluor-S Max MultImager), anti-A signal divided by anti-mIgG signal.

In the case of “mouse anti-human blood group A all types (mIgM, Dako) (antibody)”, the relative A epitope density (ratio of blood group A to mIgG reactivity), fold over PSGL-1/mIgG2b made in 293T cells with FUT2 and the A gene stood at 3 fold.
